Laboratory results taken from US8911953B2, “TDF-related compounds and analogs thereof, analogs and bioactive fragments” (Thrasos Innovation, Inc., priority 2005, dated 2014).
Like-named read-outs stand apart in the source and are kept apart here. Positions of bridges follow the written chain, without caps; N, C: chain ends. No end group written: not given here.

Key:
HK-2 cells = assay: Smad1 phosphorylation and nuclear translocation in HK-2 cells (immunofluorescence); type: cell-based, human; details: 1.3 uM and 33 uM compound
Procedure: Phosphorylation and nuclear translocation of Smads occurs following the activation of Type I and Type II receptors and subsequent signal transduction to intracellular Smad targets. Phosphorylation and nuclear translocation of R-Smad in HK-2, vascular endothelial, human prostate or other cells by TDFRP compounds is assayed by immuno-fluorescent microscopy methods, using anti-phospho Smad 1/5 antibodies according to the procedure of H Aoki, M Fujii, T Imamura, K Yagi, K Takehara, M Kato and K Miyazono. J. of Cell Sci. 114, 1483-1489, 2001) and by Western blot analysis (FIGS. 2, 3, 18, 2X).
For example, HK-2, human proximal tubule cells are incubated in culture medium alone or exposed TDFRP or control compounds for one hour ten minutes at 37 degree C. BMP-7 served as a positive control in the assay. Each well is rinsed with 1 mL prewarmed medium. 1 mL per well of cold Acetone/Methanol mix (1:1) is added and incubated for 2 minutes at room temperature to fix the cells. Wells are washed with 1 mL of cold PBS and blocked with 1 mL blocking buffer (3% BSA, 1% goat serum in PBS) for 7 minutes. Wells are aspirated without disturbing the cells, and 500 uL/well primary antibody is added (anti-phospho-Smad 1) at 0.056 ug/mL concentration in 3% BSA in PBS (no goat serum). Cells are incubated overnight at 4 degrees C. […]

ALK-3 = ALK-3 (Homo sapiens, UniProt P36894); assay: Radioligand receptor binding assay (competition with 125I-labeled TDF-1)
From the text: Radioligand Receptor Binding Assays for ALK-3, ALK-6 and BMPR-2:
The assays are based on competition between ^125I-labeled TDF-1 (BMP-7 or OP-1 or other BMPs) and candidate TDFRP compounds or unlabeled TDF-1 for binding to respective receptors (ALK-3, ALK-6 or BMPR-2 or other BMP receptors or co-receptors). In brief, the procedure involves immobilization of receptor on 96 well Removawell plates, blocking the wells with 3% BSA in PBS and subsequently washing the wells. Increasing concentrations of unlabeled TDF-1 or TDFRP compounds or control (unlabeled TDF-1) prepared in binding buffer are then added. Incubate plate for 1 hour at room temperature, and then add a fixed amount of ^125I-labeled TDF-1 (250,000 to 350,000 cpm) to the wells and further incubate in cold (4° C.) for 20 hours. Aspirate the contents of the wells and wash the wells four times with a wash buffer, and count the receptor bound ^125I-labeled TDF-1 in an auto gamma counter.
Using this procedure, TDFRP compound binding to select ALK receptors are assessed. Accordingly, TDFRP compounds that preferentially bind select ALK receptors can be identified. For example, TDFRP compounds that preferentially bind to ALK-3 receptor compared with binding to other ALK receptors, e.g., ALK-6 (FIGS. 1, 15).
A. Radioligand Receptor Binding Assays For ALK-3, ALK-6 and BMPR-2: […]

Sequence of ALK-3 (P36894 24-532, species assumed): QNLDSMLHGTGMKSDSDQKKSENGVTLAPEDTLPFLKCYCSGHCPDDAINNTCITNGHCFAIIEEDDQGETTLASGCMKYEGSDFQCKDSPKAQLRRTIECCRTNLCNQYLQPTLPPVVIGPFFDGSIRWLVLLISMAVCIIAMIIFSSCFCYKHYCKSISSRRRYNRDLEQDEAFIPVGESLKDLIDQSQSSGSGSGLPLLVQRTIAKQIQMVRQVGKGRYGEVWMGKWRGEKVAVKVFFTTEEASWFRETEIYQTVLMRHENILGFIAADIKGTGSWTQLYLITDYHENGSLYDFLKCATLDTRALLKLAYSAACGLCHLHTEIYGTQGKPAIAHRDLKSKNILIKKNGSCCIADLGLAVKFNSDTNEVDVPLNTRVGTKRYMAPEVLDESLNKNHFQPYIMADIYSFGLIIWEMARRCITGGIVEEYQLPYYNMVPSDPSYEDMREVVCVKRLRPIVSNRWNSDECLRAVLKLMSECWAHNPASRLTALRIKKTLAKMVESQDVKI

CYFDDSSNVLCKKYRS (disulfide 1-11 (inferred); not fully specified) [SEQ ID NO:45]
Smad1 phosphorylation, activation and translocation in the nucleus (HK-2 cells): Smad1 phosphorylation, activation and translocation in the nucleus | binding to BMP Type I ALK-3 receptor compared to ALK-6 receptor (ALK-3): binds preferentially | binding to BMP Type I ALK-3 receptor compared to ALK-6 receptor (ALK-3; listed as SEQ ID NO 45): selectively binds
